Measured values reported in paper PMC8437434, “Hsp40s play complementary roles in the prevention of tau amyloid formation” (eLife, 2021).

Target: T1, full-length tau (2N4R), C322S (UniProt P10636-8 1-441, C322S)
T1 construct: microtubule-associated protein tau, longest splice isoform 2N4R, with C322S; 15N-labelled for NMR; also called 15N-tau; source: E. coli BL21 (DE3), purified (Ni-NTA, tag cleaved, Superdex 75); not shown: His6, N-terminal, cleaved
Assay: NMR titration; 1H-15N HSQC-TROSY of 200 µM 15N-tau, tau^4R or tau^4R P301S/P301L alone and with twofold excess (400 µM) of chaperone; intensity ratios I/I0; 50 mM HEPES pH 7.0, 50 mM KCl, 1 mM DTT, 25 °C; no heparin
Conditions: both partners purified

T1 sequence (P10636 other isoform, or with tags, fused parts or gaps C322S | C322S | C322S C322S): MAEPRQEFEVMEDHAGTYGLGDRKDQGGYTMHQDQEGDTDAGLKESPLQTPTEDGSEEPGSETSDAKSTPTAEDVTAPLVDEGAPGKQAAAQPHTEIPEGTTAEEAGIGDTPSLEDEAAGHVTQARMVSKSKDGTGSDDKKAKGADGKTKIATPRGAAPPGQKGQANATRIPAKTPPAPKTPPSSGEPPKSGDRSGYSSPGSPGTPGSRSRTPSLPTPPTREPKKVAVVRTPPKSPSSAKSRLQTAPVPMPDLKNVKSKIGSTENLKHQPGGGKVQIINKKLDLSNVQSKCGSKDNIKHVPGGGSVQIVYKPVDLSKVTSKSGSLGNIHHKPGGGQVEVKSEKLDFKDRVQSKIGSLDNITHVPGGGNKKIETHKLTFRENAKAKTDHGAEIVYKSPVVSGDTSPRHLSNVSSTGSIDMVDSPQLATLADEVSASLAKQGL

B1: DNAJA2 (natural protein)
chain: not shown
notes: DNAJA2, class A J-domain protein; homodimer (90 kDa dimer as printed); also called class A JDP; Hsp40; source: E. coli BL21 (DE3), purified (Ni-NTA, tag cleaved, Superdex 200); not shown: His6, N-terminal, cleaved
binding result: binds
